Columns and labels:
melanoma = conditions: subcutaneous long-term therapy after surgical resection; cited from earlier work
sarcoma = conditions: monotherapy; cited from earlier work
prostate cancer = conditions: patients with prostate cancer; cited from earlier work
MiaPaca SC tumors = assay: Antitumoral efficacy in MiaPaca SC tumor model (athymic nu/nu mice); format: in vivo, mouse; conditions: 10 μg/Kg SC daily, 37 days after treatment
Procedure: (§1) It is depicted the antitumoral efficacy of G-CSF in human pancreatic SC tumors. Athymic nu/nu mice bearing MiaPaca SC tumors were daily treated with subcutaneous G-CSF injection at a dose of 10 μg/kg, while GE was injected intraperitoneal at a dose of 80 mg/Kg two times per week during the whole experiment. Total tumor volume (mm^3±SE) in saline (solid lines), G-CSF 10 μg/kg (dashed lines) and GE 80 mg/kg (dotted) groups, for 37 days of treatment are represented.
(§2) Human pancreatic adenocarcinoma cell lines, Panc-1 and MiaPaca cells and the mouse pancreatic adenocarcinoma cells Panc02, were used for pancreatic cancer efficacy studies. Murine colorectal carcinoma cell line, Colon-26 cells, was used for colon cancer efficacy studies. […]
(§3) Mouse Models and Tumor Growth Studies Animal procedures met the guidelines of European Community Directive 86/609/EEC and were approved by the Local Ethical Committee. […] All animals were weighed and tumors were measured using manual caliper three times per week. SC tumor volumes were calculated according to the formula described by Attia and Weiss (Attia M A, et. al. “Immunology of spontaneous mammary carcinomas in mice. V. Acquired tumor resistance and enhancement in strain A mice infected with mammary tumor virus” Cancer Res. 1966, vol. 26, pp, 1787-1800), V (mm^3)=0.4×(larger diameter×smaller diameter^2). […]

Colon-26 SC tumors [1] = assay: Antitumoral efficacy in Colon-26 SC tumor model (Balb/C mice); format: in vivo, mouse; conditions: Colon-26, 10 μg/Kg SC daily, 18 days of treatment
Procedure: It is depicted the antitumoral efficacy of G-CSF in mouse colorectal SC tumors. BalbC mice bearing colorectal SC tumors were daily treated with subcutaneous G-CSF injection at a dose of 10 μg/kg. Total tumor volume (mm^3±SE) in saline (solid lines) and G-CSF10 μg/kg (dashed lines) groups, for 18 days of treatment are represented.
Depiction of the antitumoral efficacy of G-CSF in colorectal SC tumors. BalbC mice bearing Colon-26 SC tumors, with and without Sephadex papula, were treated daily with subcutaneous G-CSF injection at a dose of 50 ug/kg. […]
as §3
Antitumoral experiments were carried out on immunocompetent Balb/C tumor-bearing mice treated with Sephadex. […] There were 4 animals per group and their survival was monitored daily (FIG. 6). […]

Panc-1 SC tumors = assay: Antitumoral efficacy in Panc-1 SC tumor model (athymic nu/nu mice); format: in vivo, mouse; conditions: Panc-1, 10 μg/Kg SC daily, 48 days of treatment
Procedure: as §1, with “Panc-1” for “MiaPaca”, “μg/Kg,” for “μg/kg,”, “μg/Kg” for “μg/kg”, “48” for “37”
as §2, §3

[2] = system: peripheral blood granulocytes; assay: Peripheral blood granulocyte levels in athymic nu/nu mice bearing MiaPaca SC tumors; format: in vivo, mouse; conditions: MiaPaca tumor-bearing nu/nu mice, first SC injection at 10, 25, 50 and 100 μg/kg, blood at 1.5 hr
Procedure: Depiction of peripheral blood granulocytes levels in Athymic nu/nu mice bearing MiaPaca SC tumors after the subcutaneous injection of G-CSF 10, 25, 50 and 100 μg/kg. Blood samples were taken at 1.5 hr and peripheral blood granulocytes levels are represented as a total number of granulocytes (GRA 10^9/L).
As peripheral blood is the only tissue routinely available from mice, the peripheral blood hemogram was also assessed in order to provide information about the behavior of blood cell populations after the subcutaneous injection of different G-CSF doses (Filgrastim—Amgen). The peripheral blood collected from the right femoral artery with a heparinized syringe in vacutainer blood collection tubes containing EDTA (Sarstedt Microvette® CB 300) were immediately subjected to differential blood cell counts (red blood cells (RBCs), white blood cells (WBCs), and blood platelets (PLTs)) and measurement of blood hemoglobin concentration using a blood cell differential automatic analyzer (ABACUS JUNIOR VET). The data for each experimental group were obtained from three to five mice. Inventors especially focused their attention on the distribution of granulocytes in the peripheral blood which was determined at 1, 5 or 2, 6, 10 and 24 hrs after an initial dose of G-CSF subcutaneously. Peripheral blood granulocytes levels were analyzed in healthy (FIG. 7), and tumor-bearing mice (FIG. 8). […]

Colon-26 SC tumors [3] = assay: Effect of Sephadex on G-CSF antitumoral efficacy in Colon-26 model; format: in vivo, mouse; conditions: Colon-26 and Sephadex, 50 μg/Kg SC daily, 19 days
Procedure: Depiction of the antitumoral efficacy of G-CSF in colorectal SC tumors. BalbC mice bearing Colon-26 SC tumors, with and without Sephadex papula, were treated daily with subcutaneous G-CSF injection at a dose of 50 ug/kg. Total tumor volume (mm^3±SE) of saline (circle), G-CSF 50 μg/kg (square, abbreviated IT50), Sephadex-Saline (triangle), and Sephadex+G-CSF 50 μg/kg (cross, abbreviated IT-Sephadex.), for 19 days of treatment are represented.
Antitumoral experiments were carried out on immunocompetent Balb/C tumor-bearing mice treated with Sephadex. Sephadex treatments were initiated when SC Colon-26 tumors reached a tumor volume ranging from 90 to 110 mm^3 and 0.5 mL of Sephadex 16% (Sephadex G-150, Pharmacia Fine Chemicals, Sweden) was subcutaneously injected in the left side flank of mice. Control animals included were Saline and Sephadex groups. In this experiment, G-CSF group was treated at a dose of 50 μg/Kg (Filgrastim—Amgen). There were 4 animals per group and their survival was monitored daily (FIG. 6). In this model, Sephadex distracts functional granulocytes from the blood into the Sephadex papula thus abolishing G-CSF antitumoral activity. […]

[4] = system: peripheral blood granulocytes; assay: Peripheral blood granulocyte levels after single subcutaneous G-CSF injection in healthy C57BJL6 mice; format: in vivo, mouse
Procedure: (§4) Depiction of the peripheral blood granulocytes levels in healthy C57BJL6 and Athymic nu/nu mice after the subcutaneous injection of a single dose of G-CSF (10 μg/kg) in C57BJL6, and 10, 25, 50 and 100 μg/kg of G-CSF in Athymic nu/nu mice. Blood samples were taken at different time points and peripheral blood granulocytes levels are represented as a total number of granulocytes (GRA×10^9/L).
(§5) As peripheral blood is the only tissue routinely available from mice, the peripheral blood hemogram was also assessed in order to provide information about the behavior of blood cell populations after the subcutaneous injection of different G-CSF doses (Filgrastim—Amgen). […] Inventors especially focused their attention on the distribution of granulocytes in the peripheral blood which was determined at 1, 5 or 2, 6, 10 and 24 hrs after an initial dose of G-CSF subcutaneously. Peripheral blood granulocytes levels were analyzed in healthy (FIG. 7), and tumor-bearing mice (FIG. 8). […]

[5] = system: peripheral blood granulocytes; assay: Peripheral blood granulocyte levels after single subcutaneous G-CSF injection in healthy athymic nu/nu mice; format: in vivo, mouse
Procedure: as §4
As peripheral blood is the only tissue routinely available from mice, the peripheral blood hemogram was also assessed in order to provide information about the behavior of blood cell populations after the subcutaneous injection of different G-CSF doses (Filgrastim—Amgen). The peripheral blood collected from the right femoral artery with a heparinized syringe in vacutainer blood collection tubes containing EDTA (Sarstedt Microvette® CB 300) were immediately subjected to differential blood cell counts (red blood cells (RBCs), white blood cells (WBCs), and blood platelets (PLTs)) and measurement of blood hemoglobin concentration using a blood cell differential automatic analyzer (ABACUS JUNIOR VET). The data for each experimental group were obtained from three to five mice. Inventors especially focused their attention on the distribution of granulocytes in the peripheral blood which was determined at 1, 5 or 2, 6, 10 and 24 hrs after an initial dose of G-CSF subcutaneously. Peripheral blood granulocytes levels were analyzed in healthy (FIG. 7), and tumor-bearing mice (FIG. 8). C57BJL6 healthy mice were injected with G-CSF 10 μg/kg and healthy athymic nu/nu mice were injected with different doses of G-CSF: 0, 10, 25, 50 and 100 μg/kg (FIG. 7). Athymic nu/nu mice bearing subcutaneous MiaPaca tumor were injected with G-CSF 10, 25, 50 and 100 μg/kg and blood was extracted at 1.5 hr (FIG. 8).

[6] = system: neutrophils in peripheral blood; assay: Peripheral blood neutrophil levels in Colon-26 mice with Sephadex; format: in vivo, mouse; conditions: Sephadex-treated Colon-26 mice
Procedure: Antitumoral experiments were carried out on immunocompetent Balb/C tumor-bearing mice treated with Sephadex. Sephadex treatments were initiated when SC Colon-26 tumors reached a tumor volume ranging from 90 to 110 mm^3 and 0.5 mL of Sephadex 16% (Sephadex G-150, Pharmacia Fine Chemicals, Sweden) was subcutaneously injected in the left side flank of mice. Control animals included were Saline and Sephadex groups. In this experiment, G-CSF group was treated at a dose of 50 μg/Kg (Filgrastim—Amgen). There were 4 animals per group and their survival was monitored daily (FIG. 6). In this model, Sephadex distracts functional granulocytes from the blood into the Sephadex papula thus abolishing G-CSF antitumoral activity.
as §5

[7] = system: tumor-infiltrating granulocytes; assay: Tumor granulocytes (CD45+CD11b+Ly6G+) by flow cytometry in Colon-26 tumors; format: in vivo, mouse; conditions: 10 μg/Kg SC, day 5, flow cytometry
Procedure: Depiction of the tumor granulocyte levels, defined as a CD45+CD11b+Ly6G+ triple positive population, analyzed by flow cytometry from Colon-26 tumors treated with 10 μg/kg of G-CSF during 5 days. Granulocytes cells from tumor are represented as a % of positive cells±SE.
To evaluate the antitumoral capacity of G-CSF in murine colorectal carcinoma, immunocompetent Balb/C mice bearing Colon-26 tumors were treated when SC tumors reached a tumor volume ranging from 90 to 110 mm^3. For G-CSF therapy, Balb/C mice were randomly divided in Saline and G-CSF groups. G-CSF treatment (Filgrastim—Amgen) was applied subcutaneously every day during the whole experiment (FIG. 4). At day 5 of the experiments, 4 animals of each treatment were sacrificed and tumors were collected. Granulocytes (GRA) cells were detected by FACS, analyzing the markers of these cells: CD45+CD11b+Ly6G (FIG. 5). Details about each treatment are described in the present table: […]

Panc02 SC tumors = assay: Antitumoral efficacy in Panc02 SC tumor model (C57BJL6 mice); format: in vivo, mouse; conditions: Panc02, 100 μg/Kg SC daily, 20 days of treatment
Procedure: It is depicted the antitumoral efficacy of G-CSF in murine pancreatic SC tumors. C57BJL6 mice bearing Panc02 SC tumors were daily treated with subcutaneous G-CSF injection at a dose of 100 μg/kg. […]
as §2, §3

GM-CSF: Granulocyte Macrophage Colony Stimulating Factor, recombinant protein; only literature results cited
therapeutic effect in melanoma patients (melanoma): therapeutic effect
therapeutic benefit in sarcoma (sarcoma): did not reveal a therapeutic benefit
therapeutic benefit in prostate cancer patients (prostate cancer): therapeutic benefit

B1: G-CSF: Granulocyte Colony Stimulating Factor, recombinant protein; Filgrastim (Amgen) used in the experiments (protein, UniProt P09919 31-207, looked up)
Granulocyte …: TPLGPASSLPQSFLLKCLEQVRKIQGDGAALQEKLVSECATYKLCHPEELVLLGHSLGIPWAPLSSCPSQALQLAGCLSQLHSGLFLYQGLLQALEGISPELGPTLDTLQLDVADFATTIWQQMEELGMAPALQPTQGAMPAFASAFQRRAGGVLVASHLQSFLEVSYRVLRHLAQP
modifications: N-terminal methionine (filgrastim)
notes: Granulocyte Colony Stimulating Factor, recombinant protein; Filgrastim (Amgen) used in the experiments
tumor inhibition compared to saline (MiaPaca SC tumors): up to 55%
tumor inhibition (Colon-26 SC tumors [1]): up to 60%
tumor inhibition compared to saline (Panc-1 SC tumors): up to 90%
peripheral blood granulocyte levels [2]: increase in a dose response manner
tumor inhibition (Colon-26 SC tumors [3]): 50%
increase of granulocyte levels compared to untreated animals ([4]; single SC dose 10 μg/Kg): 2.5 fold
time of maximum peripheral blood granulocyte levels post-G-CSF injection ([4]; single SC injection): 6 h
increase of granulocyte levels compared to untreated animals ([5]; single SC dose 10 μg/Kg): 2.5 fold
increase of granulocyte levels compared to untreated animals ([5]; single SC dose 25 μg/Kg): 3.5 fold
increase of granulocyte levels compared to untreated animals ([5]; single SC dose 50 μg/Kg): 3.7 fold
increase of granulocyte levels compared to untreated animals ([5]; single SC dose 100 μg/Kg): 3.5 fold
time of maximum peripheral blood granulocyte levels post-G-CSF injection ([5]; single SC injection): 6 h
neutrophils levels in peripheral blood after G-CSF injection [6]: smoothly recovered
tumor-infiltrating granulocytes (CD45+CD11b+Ly6G+ triple positive population) [7]: significant increase
tumor inhibition compared to saline (Panc02 SC tumors): around 50%
